How the values were obtained:
[1] = tested on: 43 kinases; assay: Specificity profile against battery of 43 kinases (Millipore KinaseProfiler); type: biochemical, human
Description: (§1) A commercial radiometric assay service (Millipore, Billerica, Mass.) was used to test the specificity and potency of peptides containing a coupled transduction domain and therapeutic domain, hereinafter “complete peptides”). In these assays, if the kinase is not inhibited by an inhibitor peptide, a positively charged substrate is phosphorylated with a radiolabeled phosphate group from an ATP.
(§2) IC50 values for inhibitor peptides were determined using Millipore's IC50Profiler Express service. The IC50 value was estimated from a 10-point curve of one-half log dilutions. For peptides tested for specificity, the concentration of the peptides that inhibited approximately 95% of MK2 activity was chosen to profile against a battery of kinases related to MK2, cell viability, or human disease from MilliporeKinaseProfiler service. In both assays, compounds were supplied in dimethylsulfoxide (DMSO). Every kinase activity measurement was conducted in duplicate.
(§3) Therapeutic inhibitor peptides were assayed for activity against human kinases related to MK2, cell viability, or human disease. The assays were performed using concentrations of therapeutic inhibitor peptides that yielded 2% to 8% of normal MK2 activity. Error is reported as the standard deviation between 2 samples, and “c” is rat AMPK whereas all other kinases used are human kinases.

[2] = molecular target: T1, CK2 (Homo sapiens, UniProt P68400); assay: Millipore radiometric kinase activity assay, CK2 (h); type: biochemical
T1 construct: purchased Millipore (assay service)
T1 sequence (P68400 whole entry): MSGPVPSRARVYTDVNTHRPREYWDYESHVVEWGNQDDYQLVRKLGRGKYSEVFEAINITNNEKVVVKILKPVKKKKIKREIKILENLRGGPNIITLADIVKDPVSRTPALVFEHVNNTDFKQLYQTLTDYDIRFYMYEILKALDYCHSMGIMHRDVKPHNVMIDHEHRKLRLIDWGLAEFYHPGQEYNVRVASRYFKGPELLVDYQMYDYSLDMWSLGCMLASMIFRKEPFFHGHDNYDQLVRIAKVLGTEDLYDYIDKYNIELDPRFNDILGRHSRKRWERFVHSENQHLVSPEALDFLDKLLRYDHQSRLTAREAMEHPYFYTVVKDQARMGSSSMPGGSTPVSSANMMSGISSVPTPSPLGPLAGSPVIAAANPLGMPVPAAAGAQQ
T1 sequence (P67870 whole entry partner): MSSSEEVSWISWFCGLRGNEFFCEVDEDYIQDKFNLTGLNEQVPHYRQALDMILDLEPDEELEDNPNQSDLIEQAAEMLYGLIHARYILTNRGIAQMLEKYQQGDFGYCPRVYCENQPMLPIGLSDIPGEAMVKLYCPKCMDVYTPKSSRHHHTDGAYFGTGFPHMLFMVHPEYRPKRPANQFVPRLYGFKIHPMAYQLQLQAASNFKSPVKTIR
Description: as §1
In a final reaction volume of 25 μL, CK2 (h) (5-10 mU) is incubated with 20 mM HEPES pH 7.6, 0.15 M NaCl, 0.1 mM EDTA, 5 mM DTT, 0.1% Triton X-100, 165 μM […] [SEQ ID NO: 55], 10 mM MgAcetate and [γ-^33P-ATP] (specific activity approx. 500 cpm/pmol, concentration as required). The reaction is initiated by the addition of the MgATP mix. After incubation for 40 minutes at room temperature, the reaction is stopped by the addition of 5 μL of a 3% phosphoric acid solution. 10 μL of the reaction is then spotted onto a P30 filtermat and washed three times for 5 minutes in 75 mM phosphoric acid and once in methanol prior to drying and scintillation counting.
as §2, §3

[3] = molecular target: T2, Syk (Homo sapiens, UniProt P43405); assay: Millipore radiometric kinase activity assay, Syk (h); type: biochemical
T2 construct: purchased Millipore (radiometric assay service)
Description: as §1
In a final reaction volume of 25 μL, Syk (h) (5-10 mU) is incubated with 50 mM Tris pH 7.5, 0.1 mM EGTA, 0.1 mM Na3VO4, 0.1% β-mercaptoethanol, 0.1 mg/mL poly(Glu, Tyr) 4:1, 10 mM MgAcetate and [γ-^33PATP] (specific activity approx. 500 cpm/pmol, concentration as required). The reaction is initiated by the addition of the MgATP mix. After incubation for 40 minutes at room temperature, the reaction is stopped by the addition of 5 μL of a 3% phosphoric acid solution. 10 μL of the reaction is then spotted onto a Filtermat A and washed three times for 5 minutes in 75 mM phosphoric acid and once in methanol prior to drying and scintillation counting.
as §2, §3

[4] = molecular target: T3, CDK1/cyclinB (Homo sapiens, UniProt P06493); assay: Millipore radiometric kinase activity assay, CDK1/cyclinB (h); type: biochemical
T3 construct: purchased Millipore (assay service)
T3 sequence (P06493 whole entry): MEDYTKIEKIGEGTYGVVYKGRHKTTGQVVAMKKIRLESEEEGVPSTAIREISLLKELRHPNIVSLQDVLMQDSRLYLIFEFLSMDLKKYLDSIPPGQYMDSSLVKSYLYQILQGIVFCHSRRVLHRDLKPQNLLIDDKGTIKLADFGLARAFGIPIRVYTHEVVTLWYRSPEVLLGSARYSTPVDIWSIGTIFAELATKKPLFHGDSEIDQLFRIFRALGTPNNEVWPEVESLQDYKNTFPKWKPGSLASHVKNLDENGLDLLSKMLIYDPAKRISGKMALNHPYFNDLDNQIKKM
T3 sequence (P14635 whole entry partner): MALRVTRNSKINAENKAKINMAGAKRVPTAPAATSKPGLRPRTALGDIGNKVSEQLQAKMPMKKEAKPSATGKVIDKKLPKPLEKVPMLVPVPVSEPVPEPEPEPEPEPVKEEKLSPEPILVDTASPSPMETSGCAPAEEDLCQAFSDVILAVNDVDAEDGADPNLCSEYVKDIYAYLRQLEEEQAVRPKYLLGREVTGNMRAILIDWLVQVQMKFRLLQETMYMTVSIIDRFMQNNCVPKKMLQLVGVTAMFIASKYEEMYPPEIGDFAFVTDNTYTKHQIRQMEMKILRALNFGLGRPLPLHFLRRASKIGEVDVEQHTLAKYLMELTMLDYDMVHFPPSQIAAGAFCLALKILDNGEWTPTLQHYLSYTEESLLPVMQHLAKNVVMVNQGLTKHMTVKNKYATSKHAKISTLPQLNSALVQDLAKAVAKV
Description: as §1
(§4) In a final reaction volume of 25 μL, CDK1/cyclinB (h) (5-10 mU) is incubated with 8 mM MOPS pH 7.0, 0.2 mM EDTA, 0.1 mg/mL histone H1, 10 mM MgAcetate and [γ-^33P-ATP] (specific activity approx. 500 cpm/pmol, concentration as required). The reaction is initiated by the addition of the MgATP mix. After incubation for 40 minutes at room temperature, the reaction is stopped by the addition of 5 μL of a 3% phosphoric acid solution. 10 μL of the reaction is then spotted onto a P30 filtermat and washed three times for 5 minutes in 75 mM phosphoric acid and once in methanol prior to drying and scintillation counting.
as §2, §3

[5] = molecular target: T4, Abl (Homo sapiens, UniProt P00519); assay: Millipore radiometric kinase activity assay, Abl (h); type: biochemical
T4 construct: purchased Millipore (assay service)
T4 sequence (P00519 whole entry): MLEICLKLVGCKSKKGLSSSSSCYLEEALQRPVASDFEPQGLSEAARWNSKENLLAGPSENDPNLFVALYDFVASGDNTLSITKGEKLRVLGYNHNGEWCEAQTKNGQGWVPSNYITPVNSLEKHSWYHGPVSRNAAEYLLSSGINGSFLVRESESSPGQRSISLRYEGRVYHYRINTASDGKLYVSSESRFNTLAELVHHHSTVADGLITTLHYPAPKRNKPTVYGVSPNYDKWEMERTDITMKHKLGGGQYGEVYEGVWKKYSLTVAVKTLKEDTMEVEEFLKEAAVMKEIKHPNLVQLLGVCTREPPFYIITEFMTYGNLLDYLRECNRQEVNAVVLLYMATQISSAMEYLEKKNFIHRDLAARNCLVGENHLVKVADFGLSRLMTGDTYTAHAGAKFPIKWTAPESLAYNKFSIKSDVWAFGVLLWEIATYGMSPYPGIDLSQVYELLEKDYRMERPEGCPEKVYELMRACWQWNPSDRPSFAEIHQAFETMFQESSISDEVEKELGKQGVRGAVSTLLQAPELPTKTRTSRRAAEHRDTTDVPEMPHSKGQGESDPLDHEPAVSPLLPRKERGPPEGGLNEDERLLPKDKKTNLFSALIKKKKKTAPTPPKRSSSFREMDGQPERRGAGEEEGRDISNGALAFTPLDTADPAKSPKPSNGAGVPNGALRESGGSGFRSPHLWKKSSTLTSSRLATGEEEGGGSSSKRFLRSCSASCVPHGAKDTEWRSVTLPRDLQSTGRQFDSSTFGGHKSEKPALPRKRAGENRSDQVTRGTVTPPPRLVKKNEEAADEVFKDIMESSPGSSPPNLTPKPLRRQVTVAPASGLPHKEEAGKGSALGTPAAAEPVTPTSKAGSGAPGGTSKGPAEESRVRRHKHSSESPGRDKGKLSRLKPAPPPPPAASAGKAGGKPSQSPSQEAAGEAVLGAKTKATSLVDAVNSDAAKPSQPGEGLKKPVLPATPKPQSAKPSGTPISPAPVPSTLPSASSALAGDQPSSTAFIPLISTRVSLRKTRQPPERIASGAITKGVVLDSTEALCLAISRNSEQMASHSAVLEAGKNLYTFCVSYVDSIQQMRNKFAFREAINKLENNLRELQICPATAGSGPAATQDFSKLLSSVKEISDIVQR
Description: as §1
as §4, with “Abl” for “CDK1/cyclinB”, “50 μM […] [SEQ ID NO: 48],” for “0.1 mg/mL histone H1,”
as §2, §3

[6] = molecular target: T5, GSK3β (Homo sapiens, UniProt P49841); assay: Millipore radiometric kinase activity assay, GSK3β (h); type: biochemical
T5 construct: purchased Millipore (assay service)
T5 sequence (P49841 whole entry): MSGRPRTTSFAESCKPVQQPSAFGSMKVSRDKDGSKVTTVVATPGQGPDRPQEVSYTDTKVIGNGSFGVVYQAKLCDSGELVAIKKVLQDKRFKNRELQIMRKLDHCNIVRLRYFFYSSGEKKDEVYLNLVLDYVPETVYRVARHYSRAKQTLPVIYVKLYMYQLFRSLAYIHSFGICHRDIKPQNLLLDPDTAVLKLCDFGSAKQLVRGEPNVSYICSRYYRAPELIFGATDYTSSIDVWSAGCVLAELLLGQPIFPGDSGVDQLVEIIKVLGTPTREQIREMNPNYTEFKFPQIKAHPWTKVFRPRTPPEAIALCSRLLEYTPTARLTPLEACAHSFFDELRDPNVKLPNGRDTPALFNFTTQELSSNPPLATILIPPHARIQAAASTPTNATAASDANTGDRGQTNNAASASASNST
Description: as §1
as §4, with “GSK3β” for “CDK1/cyclinB”, “20 μM […](p)EDEEE [SEQ ID NO: 57] (phospho GS2 peptide),” for “0.1 mg/mL histone H1,”, “50” for “75”
as §2, §3

[7] = molecular target: T6, EGFR (Homo sapiens, UniProt P00533); assay: Millipore radiometric kinase activity assay, EGFR (h); type: biochemical
T6 construct: purchased Millipore (assay service)
Description: as §1
as §4, with “EGFR” for “CDK1/cyclinB”, “EDTA, 10 mM MnCl2,” for “EDTA,”, “poly(Glu, Tyr) 4:1,” for “histone H1,”, “Filtermat A” for “P30 filtermat”
as §2, §3

| Sequence | Percentage of the 43 kinases Tested with less than 20% Activity ([1]; Concentration Tested 100 μM) | CK2 Kinase Activity (%) (+SD %) ([2]; peptide 100 μM) | Syk Kinase Activity (%) (+SD %) ([3]; peptide 100 μM) | CDK1/cyclin B Kinase Activity (%) (+SD %) ([4]; peptide 100 μM) | Abl Kinase Activity (%) (+SD %) ([5]; peptide 100 μM) | GSK3β Kinase Activity (%) (+SD %) ([6]; peptide 100 μM) | EGFR Kinase Activity (%) (+SD %) ([7]; peptide 100 μM) | Percentage of the 43 kinases Tested with less than 20% Activity ([1]; Concentration Tested 30 μM) | CK2 Kinase Activity (%) (+SD %) ([2]; peptide 30 μM) | Syk Kinase Activity (%) (+SD %) ([3]; peptide 30 μM) | CDK1/cyclin B Kinase Activity (%) (+SD %) ([4]; peptide 30 μM) | Abl Kinase Activity (%) (+SD %) ([5]; peptide 30 μM) | GSK3β Kinase Activity (%) (+SD %) ([6]; peptide 30 μM) | EGFR Kinase Activity (%) (+SD %) ([7]; peptide 30 μM) |
| --- | --- | --- | --- | --- | --- | --- | --- | --- | --- | --- | --- | --- | --- | --- |
| FAKLAARLYRKALARQLGVAA | 37% |  |  |  |  |  |  |  |  |  |  |  |  |  |
| KAFAKLAARLYRKALARQLGVAA |  | 79 (12) % | 4 (4) % | 55 (3) % | 55 (0) % | 184 (1) % | 16 (1) % |  |  |  |  |  |  |  |
| WLRRIKAWLRRIKALNRQLGVAA |  | 80 (14) % | 38 (9) % | 36 (2) % | 41 (2) % | 188 (4) % | 18 (2) % | 47% | 114 (4) % | 19 (3) % | 17 (0) % | 24 (5) % | 129 (2) % | 10 (4) % |

— US9327008B2, “Cell-permeant peptide-based inhibitor of kinases” (Purdue Research Foundation, priority 2008, dated 2016)
